Laboratory results reported in patent US8673579B2, “Peptide probes for diagnostics and therapeutics” (priority 2006, dated 2014).
pyrene = pyrene fluorescent label

Columns and labels:
[1] = Circular dichroism secondary structure calculation; type: physicochemical; conditions: circular dichroism in 30% TFE/Tris, CDPRO deconvolution
[2] = molecular target: Aβ40 (Homo sapiens, UniProt P05067); assay: Pyrene-labeled peptide probe fluorescence with structural forms of Aβ40; type: binding
Source text: (§1) A peptide probe specific for Aβ (SEQ ID NO:36) is used to detect specific structural forms of Aβ40 and Aβ42. The peptide probe is labeled at each terminus with pyrene. The peptide probe is contacted with different samples comprising Aβ42 oligomers, Aβ40 oligomers, and Aβ40 monomers.
(§2) Interaction between the peptide probe and sample is detected by excitation at 350 nm and scanning fluorescence from 360 to 600 nm. […] FIG. 11A (fibers and monomer) & 11B (oligomers).

[3] = molecular target: Aβ42 (Homo sapiens, UniProt P05067); assay: Pyrene-labeled peptide probe fluorescence with structural forms of Aβ42; type: binding
Chain of Aβ42 (P05067 672-713): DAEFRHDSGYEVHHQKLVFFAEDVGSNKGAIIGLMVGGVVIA
Source text: as §1, §2

[4] = test system: Aβ40 and Aβ42 in human cerebrospinal fluid (CSF); assay: Detection of Aβ in human CSF samples (excimer/monomer fluorescence ratio); type: binding; conditions: 40 μL CSF, 2 μM dipyrene-labeled probe, 1 hour; ratio 430-530 nm over 370-385 nm
Source text: A peptide probe specific for Aβ (SEQ ID NO:36) is used to detect Aβ40 and Aβ42 in samples of human cerebrospinal fluid (CSF) obtained from Alzheimer's patients and from age-matched healthy patients. […] The data is presented in FIG. 12 as the ratio of the […] region (430-530 nm) over the monomeric region (370-385 nm). […] FIG. 12A presents the data for each patient, while FIG. 12B presents the average data for each patient group.

[5] = test system: Aβ40 and Aβ42 in human serum; assay: Detection of Aβ in human serum with immobilized biotinylated peptide probe; type: binding; conditions: 200 μL serum; biotinylated probe on streptavidin magnetic beads, then 2 μM dipyrene-labeled probe 3-5 hours
Experimental: Biotinylated peptide probe is immobilized to Dynal magnetic beads coated with streptavidin. These beads are incubated directly with the serum samples for 1 hour, then the magnetic beads and the captured material are pulled down to remove the serum samples.

[6] = molecular target: T1, Aβ plaques (Homo sapiens, UniProt P05067); assay: In vitro staining of brain sections from hAPP751SL transgenic mice; type: binding
T1 sequence (P05067 672-713 limits assumed): as the sequence (P05067 672-713) above
Experimental: The following illustrates the ability of peptide probes to target Aβ plaques (e.g., insoluble self-aggregates of Aβ protein associated with Alzheimer's disease) both in vitro and in vivo. A peptide probe specific for Aβ (SEQ ID NO:36) and labeled at each terminus with pyrene is used.
In vitro studies are carried out on brain sections from transgenic mice over-expressing human APP751 with London and Swedish mutations (hAPP751SL). This protein is an Aβ mutant that forms neuritic plaques in the transgenic mice. Tissue from non-transgenic littermate mice served as control tissue.
Two different types of tissue slices are evaluated: cyro-cut (frozen and sliced) and paraffin embedded and sliced. The peptide probe is incubated on the brain slices and binding of the peptide probe to the brain, and to the amyloid deposits/plaques in particular, are qualitatively evaluated. For reference purposes, consecutive slices are immunohistochemically stained with an anti-Aβ antibody, the 6E10 antibody or Thioflavin S. The use of anti-Aβ controls confirms the specificity of the staining on neuritic plaques.
Images are recorded on a Nikon E800 microscope with a mounted PixelFly camera. For tiled image recordings, the microscope is equipped with a StagePro software controlled automatic table. Images of peptide probe staining and antibody and ThioflavinS staining, respectively, are overlaid in Adobe Photo Shop software
In the latter samples, cells from the neuronal layer of the hippocampus are marked, as are brain tissue around plaques in the cortex. Thus, the quality of the stain may be better on paraffin sections.

[7] = molecular target: T1, Aβ plaques
[8] = molecular target: T2, PrP^Sc (Mesocricetus auratus, UniProt P04273)
T2 sequence (P04273 23-231 limits assumed): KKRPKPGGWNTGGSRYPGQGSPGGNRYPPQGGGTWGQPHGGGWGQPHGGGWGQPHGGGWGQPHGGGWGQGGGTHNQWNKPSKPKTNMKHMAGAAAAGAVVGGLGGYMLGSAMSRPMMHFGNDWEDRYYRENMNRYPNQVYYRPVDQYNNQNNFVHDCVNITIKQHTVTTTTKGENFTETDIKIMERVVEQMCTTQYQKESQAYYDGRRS

[9] = molecular target: T2, PrP^Sc; remark: listed apart in the source
[10] = molecular target: T3, PrP^Sc (Ovis aries, UniProt P23907)
T3 sequence (P23907 25-233 limits assumed): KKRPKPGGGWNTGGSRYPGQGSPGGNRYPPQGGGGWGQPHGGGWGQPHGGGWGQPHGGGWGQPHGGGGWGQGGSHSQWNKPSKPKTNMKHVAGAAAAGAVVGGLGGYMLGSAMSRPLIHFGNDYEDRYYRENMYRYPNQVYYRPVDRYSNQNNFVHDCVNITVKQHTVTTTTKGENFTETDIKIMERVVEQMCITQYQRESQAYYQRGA

[11] = molecular target: T3, PrP^Sc; remark: listed apart in the source
[12] = general statement in description
[13] = probe labeled at each terminus with pyrene, excitation 350 nm, scan 360 to 600 nm
[14] = intranasal labeled peptide probe

Chain of Aβ40 (P05067 672-711): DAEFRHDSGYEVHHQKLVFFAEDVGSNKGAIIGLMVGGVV

Aβ40 fibers: fibers of Aβ40 amyloid beta protein used as sample
turn/unordered structure [1]: 35.9% | α helix structure [1]: 5.6% | β strand (sheet) structure [1]: 58.4%

Aβ42 fibers: fibers of Aβ42 amyloid beta protein used as sample
turn/unordered structure [1]: 27.2% | α helix structure [1]: 12.6% | β strand (sheet) structure [1]: 60.2%

KLVFFAEDVGSNKGAIIGLM [SEQ ID NO:36]
turn/unordered structure [1]: 55.5% | α helix structure [1]: 19.4% | β strand (sheet) structure [1]: 25.1% | specific reaction with Aβ40 monomers [2, 12]: do not specifically react | specific reaction with Aβ40 oligomers [2, 12]: specifically react | dose-dependent reaction with Aβ40 fibers [2, 13]: reacts | dose-dependent reaction with Aβ40 monomer [2, 13]: dose not react | dose-dependent reaction with Aβ40 oligomers [2, 13]: reacts | specific reaction with Aβ42 monomers [3, 12]: do not specifically react | specific reaction with Aβ42 oligomers [3, 12]: specifically react | dose-dependent reaction with Aβ42 fibers [3, 13]: reacts | dose-dependent reaction with Aβ42 oligomers [3, 13]: reacts | stratification of Alzheimer's patients from age-matched healthy patients [4]: able to stratify | stratification of Alzheimer's patients from age-matched healthy patients [5]: able to stratify | staining of human amyloid peptide bearing blood vessels ([6]; hAPP751SL transgenic brain slices): specifically stained | plaque specificity of staining, paraffin versus cryo-cut slices ([6]; overlay with antibody staining of consecutive slices): staining on paraffin slices is more specific to plaques than staining on cryo-cut slices | staining of plaques on brain slices ([6]; paraffin or cryo-cut slices, dipyrene-labeled probe): plaque-specific staining is apparent | binding in brain of hAPP751SL transgenic mice [7, 14]: binds to the amyloid and agglomerates outside the blood vessel in the brain | distribution and binding in brain of nontransgenic mice [7, 14]: reaches the olfactory bulb, but does not bind to a specifiable morphological structure | crossing of the blood-brain barrier (BBB) ([7]; mouse, in vivo): crosses the blood-brain barrier

VVAGAAAAGAVHKMNTKPKMKHVAGAAAAGAVV [SEQ ID NO:43]
reactivity with smaller versus larger PrP^Sc aggregates [8]: reacts with smaller PrP^Sc aggregates over larger PrP^Sc aggregates | reactivity after sonication of samples [9]: increased reactivity | effect of sample sonication on signal-to-noise [10]: improved the signal-to-noise ration | reactivity with PrP^Sc in sera from infected sheep [10]: reacted | reactivity with sera from normal sheep [10]: did not react | sensitivity [10]: 100% | specificity [10]: 100% | relative reactivity with sheep blood components [11]: buffy coat>serum>plasma

labeled peptide probe: peptide probe specific for Aβ (SEQ ID NO:36) labeled at each terminus with pyrene (pyrene-KLVFFAEDVGSNKGAIIGLM-pyrene)
turn/unordered structure [1]: 54.1% | α helix structure [1]: 18.3% | β strand (sheet) structure [1]: 27.6%

oligomers of Aβ42: sample of oligomers of Aβ42 including dimers, trimers, tetramers, hexamers and 12-mers
turn/unordered structure [1]: 45.4% | β strand (sheet) structure [1]: 52.7%
